The values below are quoted from earlier work in PMC3074115.

Broadly, the Kd is the equilibrium constant for the complex coming apart.

One series deals with IscU (Escherichia coli) (UniProt P0ACD4). In words: ITC and SPR.
The target in series [1] is Ferrochelatase (Homo sapiens) (UniProt P22830). Kind of series: ITC. In general terms: Isothermal titration calorimetry measures the heat released or taken up as one component is titrated into another.
Sequence of Ferrochelatase (Homo sapiens) (P22830 55-423): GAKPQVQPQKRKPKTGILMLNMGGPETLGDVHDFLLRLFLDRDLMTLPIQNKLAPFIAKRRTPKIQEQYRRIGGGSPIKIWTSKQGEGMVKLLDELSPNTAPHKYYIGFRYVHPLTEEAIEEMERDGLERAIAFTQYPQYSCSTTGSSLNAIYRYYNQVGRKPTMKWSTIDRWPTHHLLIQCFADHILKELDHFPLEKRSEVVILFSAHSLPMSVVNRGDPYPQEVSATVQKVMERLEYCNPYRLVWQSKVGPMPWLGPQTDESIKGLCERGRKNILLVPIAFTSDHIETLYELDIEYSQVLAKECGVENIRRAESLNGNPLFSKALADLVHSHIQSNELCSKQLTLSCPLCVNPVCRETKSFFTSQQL

Sequence of IscS (P0A6B7 whole entry): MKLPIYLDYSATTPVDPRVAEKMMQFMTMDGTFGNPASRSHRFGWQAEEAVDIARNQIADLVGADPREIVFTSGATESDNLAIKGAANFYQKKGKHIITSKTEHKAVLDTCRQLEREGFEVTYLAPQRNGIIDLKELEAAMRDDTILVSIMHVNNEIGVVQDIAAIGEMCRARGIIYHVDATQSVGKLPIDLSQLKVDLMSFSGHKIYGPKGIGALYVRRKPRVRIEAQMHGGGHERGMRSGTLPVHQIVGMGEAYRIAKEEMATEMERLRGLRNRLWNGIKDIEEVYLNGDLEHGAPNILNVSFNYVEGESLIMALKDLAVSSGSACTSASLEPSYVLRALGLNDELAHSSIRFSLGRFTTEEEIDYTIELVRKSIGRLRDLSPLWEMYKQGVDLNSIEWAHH
Sequence of IscU (Escherichia coli) (P0ACD4 whole entry): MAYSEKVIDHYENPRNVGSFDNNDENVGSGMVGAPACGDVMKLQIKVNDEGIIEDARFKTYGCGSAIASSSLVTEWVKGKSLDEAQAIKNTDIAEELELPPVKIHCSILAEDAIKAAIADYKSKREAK

Consider IscS (from UniProt P0A6B7), for which the Kd in the series with IscU (Escherichia coli) was 2000 nM.

Frataxin (from UniProt Q16595): in series [1], the Kd was 17 nM.
